According to patent US20240287188A1 (KUMHO HT, published 2024):
Numbering of substitutions follows the chain as printed. One block for each molecule: values may come before it.

Tests used:
[1] = target: ICAM-1 expressed on the surface of the prostate cancer cell line Du145 (human) (UniProt P05362); test: flow cytometry on Du145 cells expressing ICAM-1
[2] = target: T1, ICAM-1 protein antigen (R&D System) (human, UniProt P05362 28-480); test: ELISA, ICAM-1 coated 100 ng/well, anti-human Ig-HRP
T1 construct: The assay paragraphs say only 'ICAM-1 (R&D System)'; also called antigen ICAM-1; ICAM-1 antigen
Protocol: The antigen ICAM-1 (ICAM-1; R&D System) was coated on a 96 well plate at 100 ng per well, followed by blocking. The amount of the primary antibody was serially diluted twice from 80 ng/ml and bound for 1 hour at 37° C. and a secondary antibody diluted 1:10000 with goat anti-Human Ig-HRP conjugate (Jackson ImmunoResearch) was combined at 37° C. for 30 minutes. Each step was washed three times and reacted with TMB (3,3′,5,5′-Tetramethylbenzidine). After the reaction was stopped by treatment with 1N H₂SO₄ solution in the same amount (100 ul) as the TMB solution, the OD value was measured at 450 nm.

[3] = target: T1, ICAM-1 protein antigen (R&D System); test: BLI (Octet), antibody coupled to AR2G amine-reactive sensor, ICAM-1 in solution at 5 concentrations
Protocol: The Octet system (ForteBio) was used to compare the affinity of the H17L1 and H17L4 humanized antibodies to the antigen with the parent antibody. Each of three antibodies was attached to the amine reactive Bio-sensor AR2G (ForteBio), and 5 different concentrations of ICAM-1 antigen solution were added to induce antigen/antibody reactions to occur. Using the antigen/antibody reaction results, the binding constant (Kon) and the dissociation constant (Koff) were measured, and the affinity (KD) was calculated, and the results are shown in Table 10 and FIG. 8: […]

T1 sequence (P05362 28-480 limits assumed): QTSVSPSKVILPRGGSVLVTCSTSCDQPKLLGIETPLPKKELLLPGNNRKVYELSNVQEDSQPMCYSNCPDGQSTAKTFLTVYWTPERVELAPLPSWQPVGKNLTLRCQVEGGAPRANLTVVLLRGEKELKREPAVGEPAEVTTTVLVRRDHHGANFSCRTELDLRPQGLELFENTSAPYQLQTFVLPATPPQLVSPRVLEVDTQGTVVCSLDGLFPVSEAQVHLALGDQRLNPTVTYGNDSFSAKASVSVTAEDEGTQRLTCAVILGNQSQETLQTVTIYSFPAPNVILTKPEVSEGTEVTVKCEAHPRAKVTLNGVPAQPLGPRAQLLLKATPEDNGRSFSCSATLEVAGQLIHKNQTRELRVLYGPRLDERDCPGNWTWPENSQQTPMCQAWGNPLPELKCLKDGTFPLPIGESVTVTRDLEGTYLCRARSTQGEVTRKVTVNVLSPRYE
Chain of ICAM-1 expressed on the surface of the prostate cancer cell line Du145 (human) (P05362 28-532): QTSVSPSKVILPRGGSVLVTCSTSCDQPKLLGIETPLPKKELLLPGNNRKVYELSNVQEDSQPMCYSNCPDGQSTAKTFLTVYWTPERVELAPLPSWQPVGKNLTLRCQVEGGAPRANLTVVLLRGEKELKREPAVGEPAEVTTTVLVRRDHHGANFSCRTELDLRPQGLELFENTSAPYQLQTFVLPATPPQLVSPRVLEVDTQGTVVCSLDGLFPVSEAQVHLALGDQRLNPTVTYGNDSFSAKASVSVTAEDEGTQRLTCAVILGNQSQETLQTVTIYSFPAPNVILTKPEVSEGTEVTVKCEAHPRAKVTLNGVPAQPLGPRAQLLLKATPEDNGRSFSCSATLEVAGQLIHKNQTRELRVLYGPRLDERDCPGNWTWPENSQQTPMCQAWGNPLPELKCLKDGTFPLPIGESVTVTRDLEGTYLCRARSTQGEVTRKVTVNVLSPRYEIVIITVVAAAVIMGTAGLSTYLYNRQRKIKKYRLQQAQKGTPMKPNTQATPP

Molecule: Negative control
% Gated (marker M1) [1]: 0.58%
Mean (marker All) [1]: 3.9
Mean (marker M1) [1]: 91

B1: humanized anti-ICAM-1 antibody H17L3 (VH17 + VL3), human IgG4/kappa (antibody, V domains shown)
VH: QVQLVQSGAEVKKPGASVKISCKGSGYTFTDYALHWVRQAPGQRLEWMGVISTYSGNTDYNQKFRGRATITVDTSASTAYMELSSLRSEDTAVYYCARSLYFGSSGFDYWGQGTALTVSS
VL: DVVLTQTPLSSPVTLGQPASISCRSSQTLVYRNGNTYLHWYLQRAGQPPRLLIYKVSNRFSGVPDRFSGSGAGTDFTLKISRVEAEDVGVYFCSQNTHFPYTFGGGTKLEIKT
notes: The Arg at the VL/CL junction is in neither entry
OD 450 nm at 2.5 ng/ml antibody [2]: 0.135 OD (450 nm)
OD 450 nm at 5 ng/ml antibody [2]: 0.201 OD (450 nm)
OD 450 nm at 10 ng/ml antibody [2]: 0.344 OD (450 nm)
OD 450 nm at 20 ng/ml antibody [2]: 0.567 OD (450 nm)
OD 450 nm at 40 ng/ml antibody [2]: 0.848 OD (450 nm)
OD 450 nm at 80 ng/ml antibody [2]: 1.2 OD (450 nm)

B5: humanized anti-ICAM-1 antibody H4L3 (VH4 + VL3), human IgG4/kappa (antibody, V domains shown)
VH: B1 VH with I20V, G24A, M48I, A68V, I70M, V72R, S77T, M81L
VL: B1 VL
notes: as for B1
OD 450 nm at 2.5 ng/ml antibody [2]: 0.115 OD (450 nm)
OD 450 nm at 5 ng/ml antibody [2]: 0.189 OD (450 nm)
OD 450 nm at 10 ng/ml antibody [2]: 0.305 OD (450 nm)
OD 450 nm at 20 ng/ml antibody [2]: 0.52 OD (450 nm)
OD 450 nm at 40 ng/ml antibody [2]: 0.832 OD (450 nm)
OD 450 nm at 80 ng/ml antibody [2]: 1.23 OD (450 nm)

B6: chimeric anti-ICAM-1 antibody SI9 (mouse SI9 variable regions, human IgG4/kappa constant regions) (antibody)
heavy: QVQLQQSGAELVRPGVSVKISCKGSGYTFTDYALHWVKQSHAKSLEWIGVISTYSGNTDYNQKFRGKATMTVDKSSTTAYLELARLTSEDSAIHYCARSLYFGSSGFDYWGQGTALTVSS
light: DVVLTQTPLSLPVNLGDQASISCRSSQTLVYRNGNTYLHWYLQKAGQSPKLLIYKVSNRFSGVPDRFSGSGSGTDFTLKISRVEAEDLGVYFCSQNTHFPYTFGGGTKIKR
notes: the hinge lies in the heavy chain; also called chimeric antibody SI9; SI9 Chimeric; not shown: human IgG4 heavy chain constant region, GenBank AIC59040.1 (printed), hinge 'CPSCP' modified to 'CPPCP' (position not pr); human kappa light chain constant region, GenBank AAA58989.1 (printed)
Kd [3]: 10.3 nM
koff [3]: 0.00169 s⁻¹
kon [3]: 165000 M⁻¹ s⁻¹
OD 450 nm at 2.5 ng/ml antibody [2]: 0.118 OD (450 nm)
OD 450 nm at 5 ng/ml antibody [2]: 0.182 OD (450 nm)
OD 450 nm at 10 ng/ml antibody [2]: 0.298 OD (450 nm)
OD 450 nm at 20 ng/ml antibody [2]: 0.473 OD (450 nm)
OD 450 nm at 40 ng/ml antibody [2]: 0.724 OD (450 nm)
OD 450 nm at 80 ng/ml antibody [2]: 1.14 OD (450 nm)

More lines, now with the values ahead:

Kd [3]: 3.43 nM
koff [3]: 0.000853 s⁻¹
kon [3]: 249000 M⁻¹ s⁻¹
OD 450 nm at 2.5 ng/ml antibody [2]: 0.119 OD (450 nm)
OD 450 nm at 5 ng/ml antibody [2]: 0.186 OD (450 nm)
OD 450 nm at 10 ng/ml antibody [2]: 0.297 OD (450 nm)
OD 450 nm at 20 ng/ml antibody [2]: 0.506 OD (450 nm)
OD 450 nm at 40 ng/ml antibody [2]: 0.802 OD (450 nm)
OD 450 nm at 80 ng/ml antibody [2]: 1.11 OD (450 nm)
B2: humanized anti-ICAM-1 antibody H17L1 (VH17 + VL1), human IgG4/kappa (antibody, V domains shown)
VH: B1 VH
VL: B1 VL with T7S, S11L, L42Q, A45P, P48S, A72S

OD 450 nm at 2.5 ng/ml antibody [2]: 0.128 OD (450 nm)
OD 450 nm at 5 ng/ml antibody [2]: 0.208 OD (450 nm)
OD 450 nm at 10 ng/ml antibody [2]: 0.35 OD (450 nm)
OD 450 nm at 20 ng/ml antibody [2]: 0.592 OD (450 nm)
OD 450 nm at 40 ng/ml antibody [2]: 0.862 OD (450 nm)
OD 450 nm at 80 ng/ml antibody [2]: 1.25 OD (450 nm)
B3: humanized anti-ICAM-1 antibody H5L3 (VH5 + VL3), human IgG4/kappa (antibody, V domains shown)
VH: B1 VH with G24A, A68V, T74K, S77T
VL: B1 VL
notes: as for B1

Kd [3]: 3.62 nM
koff [3]: 0.000929 s⁻¹
kon [3]: 256000 M⁻¹ s⁻¹
OD 450 nm at 2.5 ng/ml antibody [2]: 0.136 OD (450 nm)
OD 450 nm at 5 ng/ml antibody [2]: 0.236 OD (450 nm)
OD 450 nm at 10 ng/ml antibody [2]: 0.349 OD (450 nm)
OD 450 nm at 20 ng/ml antibody [2]: 0.637 OD (450 nm)
OD 450 nm at 40 ng/ml antibody [2]: 0.983 OD (450 nm)
OD 450 nm at 80 ng/ml antibody [2]: 1.24 OD (450 nm)
B4: humanized anti-ICAM-1 antibody H17L4 (VH17 + VL4), human IgG4/kappa (antibody, V domains shown)
VH: B1 VH
VL: B1 VL with L42Q, A45P
notes: The Arg at the VL/CL junction is in neither entry; also called DNP007; DNP007 antibody (H17L4 antibody)
